Like-named read-outs stand apart in the source and are kept apart here. Square brackets hold non-standard residues; d marks the D form. Ends that are not written are not given here. * marks the point of attachment. 2Thi = N[C@@H](Cc1cccs1)C(=O)O; Nicotinoyl = O=C(c1cccnc1)*
Key:
[1] = biological target: T1, human angiotensin AT2 receptor (human, UniProt P50052 1-363)
T1 sequence (looked up): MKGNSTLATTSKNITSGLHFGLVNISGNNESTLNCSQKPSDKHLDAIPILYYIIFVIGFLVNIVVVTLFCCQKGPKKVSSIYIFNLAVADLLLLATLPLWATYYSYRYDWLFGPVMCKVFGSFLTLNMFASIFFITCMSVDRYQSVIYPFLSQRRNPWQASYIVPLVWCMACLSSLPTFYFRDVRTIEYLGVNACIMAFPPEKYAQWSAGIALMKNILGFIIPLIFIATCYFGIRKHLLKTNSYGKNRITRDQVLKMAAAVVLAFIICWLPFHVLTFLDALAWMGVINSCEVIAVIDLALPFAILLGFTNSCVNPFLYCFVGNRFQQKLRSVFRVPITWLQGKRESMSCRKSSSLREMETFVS

[2] = biological target: T1, human angiotensin AT2 receptor; remark: listed apart in the source
[3] = biological target: T1, human angiotensin AT2 receptor; remark: listed apart in the source
Description: (§1) Compounds were screened at 10 μM. […] Biochem. Biophys. Res. Comm.

[4] = biological target: T2, human angiotensin AT2 receptor (human) (UniProt P50052)
T2 sequence (looked up): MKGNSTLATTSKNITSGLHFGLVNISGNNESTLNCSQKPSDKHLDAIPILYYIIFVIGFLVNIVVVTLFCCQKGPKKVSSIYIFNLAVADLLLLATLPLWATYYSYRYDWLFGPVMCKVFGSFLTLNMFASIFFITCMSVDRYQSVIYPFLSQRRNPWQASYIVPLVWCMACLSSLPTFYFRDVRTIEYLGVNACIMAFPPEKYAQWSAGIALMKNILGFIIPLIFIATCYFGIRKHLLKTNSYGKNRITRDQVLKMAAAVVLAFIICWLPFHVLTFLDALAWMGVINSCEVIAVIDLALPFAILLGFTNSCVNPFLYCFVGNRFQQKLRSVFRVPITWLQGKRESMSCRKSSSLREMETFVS

[5] = biological target: T1, human angiotensin AT2 receptor; experiment: [125I]CGP-42112A binding to membranes of HeLa cells expressing human AT2 receptor
Description: as §1

[6] = biological target: T3, Bradykinin B1; experiment: receptor panel ligand-binding screen, FPAh at 10 µM
T3 sequence (P46663 whole entry, species assumed, looked up): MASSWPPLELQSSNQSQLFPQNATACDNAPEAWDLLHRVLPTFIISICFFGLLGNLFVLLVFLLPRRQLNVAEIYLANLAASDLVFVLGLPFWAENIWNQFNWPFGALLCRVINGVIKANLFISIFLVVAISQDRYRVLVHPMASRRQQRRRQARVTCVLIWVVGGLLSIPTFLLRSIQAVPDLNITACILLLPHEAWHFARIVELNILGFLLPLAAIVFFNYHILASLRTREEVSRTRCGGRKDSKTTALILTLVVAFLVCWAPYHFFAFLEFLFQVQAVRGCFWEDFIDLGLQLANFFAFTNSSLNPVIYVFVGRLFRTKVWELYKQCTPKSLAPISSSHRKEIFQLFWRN

[7] = biological target: Cholecystokinin; experiment: as above
[8] = biological target: Estrogen ERa; experiment: as above
[9] = biological target: Glutamate AMPA; experiment: as above
[10] = biological target: Inositol Triphosphate IP3; experiment: as above
[11] = biological target: Potassium Channel [Ka]; experiment: as above
[12] = biological target: Serotonin 5-HT 2a; experiment: as above
[13] = biological target: T4, Thyrotropin Releasing Hormone; experiment: as above
T4 sequence (P34981 whole entry, species assumed, looked up): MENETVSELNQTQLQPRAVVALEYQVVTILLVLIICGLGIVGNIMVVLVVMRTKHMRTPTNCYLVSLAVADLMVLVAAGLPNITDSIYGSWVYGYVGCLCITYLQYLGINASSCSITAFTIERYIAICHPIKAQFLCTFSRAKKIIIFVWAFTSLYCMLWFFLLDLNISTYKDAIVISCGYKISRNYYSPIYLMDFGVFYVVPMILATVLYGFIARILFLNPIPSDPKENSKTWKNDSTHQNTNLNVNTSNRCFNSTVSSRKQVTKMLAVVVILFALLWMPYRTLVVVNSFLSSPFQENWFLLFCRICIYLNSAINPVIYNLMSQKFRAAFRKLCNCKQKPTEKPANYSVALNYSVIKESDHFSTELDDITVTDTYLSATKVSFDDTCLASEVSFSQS

[14] = biological target: Vascular endothelial growth factor; experiment: as above

Sequence of Serotonin 5-HT 2a (P28223 whole entry): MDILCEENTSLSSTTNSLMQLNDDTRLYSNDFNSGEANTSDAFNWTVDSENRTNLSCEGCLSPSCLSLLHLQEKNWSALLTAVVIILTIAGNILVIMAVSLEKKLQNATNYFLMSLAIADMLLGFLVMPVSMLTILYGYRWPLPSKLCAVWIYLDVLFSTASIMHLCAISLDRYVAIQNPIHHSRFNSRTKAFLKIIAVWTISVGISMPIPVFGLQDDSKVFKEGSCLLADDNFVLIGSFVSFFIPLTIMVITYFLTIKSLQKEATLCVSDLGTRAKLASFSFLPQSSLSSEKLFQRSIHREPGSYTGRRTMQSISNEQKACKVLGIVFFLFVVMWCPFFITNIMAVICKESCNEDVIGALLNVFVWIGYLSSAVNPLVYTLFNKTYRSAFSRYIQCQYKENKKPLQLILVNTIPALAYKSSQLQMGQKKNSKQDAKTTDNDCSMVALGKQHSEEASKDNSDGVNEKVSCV

Molecule: [Lys0-Hyp3] Bradykinin (peptide)
- % Inhibition ATII receptor [1]: 13%

Molecule: N-Admantanecarbonyl-DArg0-Hyp3, Thi5,8, DPhe7] Bradykinin (peptide)
- % Inhibition ATII receptor [1]: 63%

Molecule: N-Admantaneacetyl-DArg0-Hyp3, Thi5,8,DPhe7] Bradykinin (peptide)
- % Inhibition ATII receptor [1]: 61%

Molecule: Bradykinin (1-3) (peptide)
- % Inhibition ATII receptor [1]: -2%

Molecule: Saralasin (peptide)
- IC50 [2]: 0.28 nM
- Ki [2]: 0.091 nM
- nH [2]: 0.9

Molecule: ISRPPGFSPFR (also called VP054) [Ile-Ser0]-Bradykinin]
- % Inhibition ATII receptor [3]: 29%

Molecule: XRPXGXSXXR (D-Arg at 0; Hyp at 3; Thi at 5; D-Tic at 7; Oic at 8 (bradykinin numbering)) [Hoe 140]
- % Inhibition ATII receptor [1]: 29%

Molecule: RPPGFS [Bradykinin (1-6)]
- % Inhibition ATII receptor [1]: -12%

Molecule: RPPGFSP (also called VP060) [Bradykinin (1-7)]
- % Inhibition ATII receptor [3]: 55%

Molecule: RPPGFSPYR [[Tyr8] Bradykinin]
- % Inhibition ATII receptor [4]: -1%

B1: CGP-42112A (peptide)
peptide: Nicotinoyl-YKHPI-OH
modifications: not fully specified (residue 2)
notes: Modified peptide ligand of the AT2 receptor and radioligand of the assay; also called CPG42112A
- Kd [5]: 0.012 nM
- IC50 [3]: 0.024 nM
- Ki [3]: 0.0078 nM
- nH [3]: 1.1

Molecule: RPPGFS[dF]FR [[DPhe7] Bradykinin]
- % Inhibition ATII receptor [1]: 9%

Molecule: XRPXGXSXXR (D-Arg at 0; Hyp at 3; Igl at 5; D-Igl at 7; Oic at 8 (bradykinin numbering)) [B9430]
- % Inhibition ATII receptor [1]: 70%

Molecule: ADSGEGDFLAEGGGVR [human form of Fibrinopeptide-A]
- % inhibited (ligand-receptor binding) [6]: 24%
- % inhibited (ligand-receptor binding) [7]: 33%
- % inhibited (ligand-receptor binding) [8]: 33%
- % stimulated (ligand-receptor binding) [9]: 30%
- % inhibited (ligand-receptor binding) [10]: 33%
- % inhibited (ligand-receptor binding) [11]: 25%
- % stimulated (ligand-receptor binding) [12]: 21%
- % inhibited (ligand-receptor binding) [13]: 23%
- % stimulated (ligand-receptor binding) [14]: 22%

Molecule: RPPGF [Bradykinin (1-5)]
- % Inhibition ATII receptor [1]: 1%

Molecule: PPGFSPFR [Bradykinin (2-9)]
- % Inhibition ATII receptor [1]: -13%

Molecule: KRPPGFSPL (also called VP041) [Lys-(Des-Arg9, Leu8)-Bradykinin]
- % Inhibition ATII receptor [3]: 98%

Molecule: RPPGYSPFR (also called VP053) [Tyr5] Bradykinin]
- % Inhibition ATII receptor [3]: 13%

Molecule: MKRPPGFSPFR (also called VP049) [Met-Lys0] Bradykinin]
- % Inhibition ATII receptor [3]: 38%

Molecule: KRPPGFSPFR (also called VP048) [[Lys0] Bradykinin]
- % Inhibition ATII receptor [3]: 29%

Molecule: YRPPGFSPFR (also called VP051) [[Tyr0] Bradykinin]
- % Inhibition ATII receptor [3]: 33%

Molecule: KRPAGFSPFR (also called VP050) [Lys0-Ala3] Bradykinin]
- % Inhibition ATII receptor [3]: 18%

Molecule: XRPXGXSXXR (D-Arg at 0; Hyp at 3; Thi at 5; D-Igl at 7; Oic at 8 (bradykinin numbering)) [B9340]
- % Inhibition ATII receptor [1]: 35%

Molecule: RPPG[2Thi]S[dF][2Thi]R [[Thi5,8,DPhe7] Bradykinin]
- % Inhibition ATII receptor [1]: 53%

Molecule: PPGFSP [Bradykinin (2-7)]
- % Inhibition ATII receptor [1]: -6%

Reference: patent US20030228371A1 (STASYS TECHNOLOGIES, published 2003)
